Target: T1, EphB2-GFP (mouse, UniProt P54763 19-986)
T1 construct: ephrin receptor EphB2 (plasmid Ephb2-GFP, Kao et al., 2009); also called EphB2 fused to GFP; wild-type EphB2-GFP; source: HEK293 (ATCC CRL 1573), transfected (calcium phosphate), in lysate
T1 sequence (looked up): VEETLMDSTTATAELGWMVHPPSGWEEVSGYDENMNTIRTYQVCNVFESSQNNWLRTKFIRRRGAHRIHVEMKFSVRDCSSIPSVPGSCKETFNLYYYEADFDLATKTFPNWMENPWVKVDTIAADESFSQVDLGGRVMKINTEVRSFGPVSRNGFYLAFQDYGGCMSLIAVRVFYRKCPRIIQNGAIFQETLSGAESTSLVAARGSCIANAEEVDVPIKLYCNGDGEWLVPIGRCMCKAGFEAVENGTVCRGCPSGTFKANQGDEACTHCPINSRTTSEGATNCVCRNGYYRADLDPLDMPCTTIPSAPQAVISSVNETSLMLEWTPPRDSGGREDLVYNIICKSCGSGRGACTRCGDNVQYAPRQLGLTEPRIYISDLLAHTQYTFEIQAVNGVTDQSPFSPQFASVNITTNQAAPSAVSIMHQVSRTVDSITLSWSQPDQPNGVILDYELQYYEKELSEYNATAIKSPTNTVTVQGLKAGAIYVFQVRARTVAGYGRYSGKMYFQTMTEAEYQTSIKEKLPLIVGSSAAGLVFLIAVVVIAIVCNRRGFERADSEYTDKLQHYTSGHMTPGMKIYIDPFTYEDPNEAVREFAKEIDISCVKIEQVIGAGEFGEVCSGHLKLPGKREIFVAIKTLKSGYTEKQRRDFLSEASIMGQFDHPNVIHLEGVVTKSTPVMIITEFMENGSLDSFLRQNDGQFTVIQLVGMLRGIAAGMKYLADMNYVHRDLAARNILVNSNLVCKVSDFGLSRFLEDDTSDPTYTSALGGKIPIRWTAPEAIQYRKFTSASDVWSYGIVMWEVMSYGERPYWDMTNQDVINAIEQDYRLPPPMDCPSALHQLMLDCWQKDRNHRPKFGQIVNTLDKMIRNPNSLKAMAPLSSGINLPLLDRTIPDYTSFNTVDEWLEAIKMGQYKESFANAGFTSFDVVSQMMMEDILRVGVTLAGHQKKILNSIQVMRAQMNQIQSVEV
Experiment: co-IP; anti-GFP antibody on ProteinA/G agarose, overnight, pre-cleared lysates of co-transfected HEK293 cells (10mM Tris-Cl pH 8, 137 mM NaCl, 2mM EDTA, 1% NP40); blot for Myc; in the ligand experiments cells were starved 2 hr in OPTIMEM and incubated 15 min at 37°C with pre-clustered Fc, eB2-Fc or eA3-Fc (1.5 μg/ml), Netrin-1 (250 ng/ml) or eB2-Fc+Netrin-1 before lysis
Conditions: partners not purified

B1: Unc5c-Myc (receptor)
chain: not shown
notes: Netrin receptor Unc5c, mouse (plasmid mUnc5c-Myc, gift of Franck Polleux); also called mUnc5c-Myc; source: HEK293 (ATCC CRL 1573), transfected (calcium phosphate), in lysate
  fold increase of the association after pre-incubation with eB2-Fc (against Fc): ~22 fold

Source: paper PMC4764565, “Synergistic integration of Netrin and ephrin axon guidance signals by spinal motor neurons” (eLife, 2015)
